Results taken from publication PMC13365404 (npj Viruses, 2026).

Key:
Details in all cases: one partner purified
[1] = target: T1, EBOV GP (Mayinga), full-length transmembrane glycoprotein expressed on MDCK SIAT-1 cells (Ebola virus, Mayinga (NP_066246.1), UniProt Q05320); experiment: immunostaining of cells or tissue
[2] = target: RESTV GP expressed on MDCK SIAT-1 cells (Reston virus, isolate ; …, UniProt Q66799); experiment: immunostaining of cells or tissue
[3] = target: T2, SUDV GP, full-length transmembrane glycoprotein expressed on MDCK SIAT-1 cells (Sudan virus, Gulu 2000 (YP_138523.1), UniProt Q7T9D9); experiment: immunostaining of cells or tissue
T2 construct: source: MDCK SIAT-1 cell line expressing GP (generated previously), on the cell surface

[4] = target: T3, BDBV GP, full-length transmembrane glycoprotein expressed on MDCK SIAT-1 cells (Bundibugyo virus, Butalya-811250 …, UniProt B8XCN0); experiment: immunoprecipitation
[5] = target: T4, TAFV GP, full-length transmembrane glycoprotein expressed on MDCK SIAT-1 cells (Taï Forest virus (YP_003815426.1), UniProt Q66810); experiment: immunoprecipitation
[6] = target: T3, BDBV GP, full-length transmembrane …; experiment: immunostaining of cells or tissue
[7] = target: T4, TAFV GP, full-length transmembrane …; experiment: immunostaining of cells or tissue
[8] = target: T1, EBOV GP (Mayinga), full-length …; experiment: immunoprecipitation

Measured: binding result

B1: mAb 11886 (recombinant rabbit IgG) (antibody, V domains shown)
VH: QSVEESGGRLVTPGTPLTLTCIVSGFSLSNYYMSWVRQVPGKGLEWIGVIGWSGTSSYASWAKGRFTISKTASTTVDLKITSPTTEDTATYFCARVLYIGGGFNYYDAFDPWGPGTLVTVS
VL: DVVMTQTPASVSEPVGGTVTIKCQASQSIGSNLAWYQQKPGQPPKLLIYAASTLASGVPSRFKGSGSGTEFTLTISDLECADAATYYCQCTYYDSSYVYNNFGGGTEVVVK
notes: source: HEK293F, transfected, purified (Protein A)
binds: [1] | [2] | [3] | [4] | [5]

B2: mAb 11883 (recombinant rabbit IgG) (antibody, V domains shown)
VH: QEQLVESGGGLVQPEGSLTLTCTASGFSFSSNCWRCWVRQAPGKGLEWIACVCAGRSGGTTYYASWAKGRFTISKTSSPTVTLQMTSLTAADTATYFCARAGYDDYGDASFFNLWGPGTLVTVS
VL: AVVLTQTASPVSTPVGGTVTIKCQASQNIYSNLAWYQQKPGQPPKLLIYSASTLASGVPSRFKGSGSGTEYTLTISDLECADAATYYCQRYYYLSGSADNTFGGGTEVVVK
notes: as for B1
binds: [6] | [2] | [3] | [7] | [8]
